Data as given in US20100330106A1 (Regeneron, published 2010).

Target: human DII4 (delta-like ligand 4) (human, UniProt Q9NR61 27-524, limits assumed)
Assay: cell-based or functional assay

Chain of human DII4 (delta-like ligand 4) (Q9NR61 27-524 limits assumed, stated change not applied): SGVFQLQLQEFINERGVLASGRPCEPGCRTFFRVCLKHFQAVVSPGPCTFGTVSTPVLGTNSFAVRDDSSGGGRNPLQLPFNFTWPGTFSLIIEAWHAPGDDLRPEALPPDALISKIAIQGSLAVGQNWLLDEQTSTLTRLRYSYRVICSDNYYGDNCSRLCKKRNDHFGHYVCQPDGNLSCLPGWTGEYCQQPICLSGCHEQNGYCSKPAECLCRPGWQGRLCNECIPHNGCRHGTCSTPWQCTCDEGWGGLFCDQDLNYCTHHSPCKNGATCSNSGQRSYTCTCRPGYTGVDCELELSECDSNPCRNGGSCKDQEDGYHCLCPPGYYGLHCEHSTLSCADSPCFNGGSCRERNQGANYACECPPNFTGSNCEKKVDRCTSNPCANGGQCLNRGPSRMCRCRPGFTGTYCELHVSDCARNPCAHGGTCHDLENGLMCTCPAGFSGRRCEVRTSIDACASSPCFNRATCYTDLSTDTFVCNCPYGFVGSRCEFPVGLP

B1: REGN421 (antibody, V domains shown)
VH: QVQLVESGGGVVQPGRSLRLSCAASGFTFSSYGMHWVRQAPGKGLEWVSFLWYDGTNKNYVESVKGRFTISRDNSKNMLYLEMNSLRAEDTAVYYCARDHDFRSGYEGWFDPWGQGTLVTVSS
VL: EIVLTQSPATLSLSPGERATLSCRASQSVSSYLAWYQQKPGQAPRLLIYDASNRATGIPARFSGSGSGTDFTLTISSLEPEDFAVYYCQHRSNWPPTFGGGTKVEIK
  Hey-1 transcript, Post-treatment vs. Pre-treatment ratio (microarray, patient 1, dose 0.25 mg/kg, 24 hours after REGN421 administration): 0.52 ratio
  Hey-1 transcript, Post-treatment vs. Pre-treatment ratio (microarray, patient 2, dose 0.25 mg/kg, 24 hours after REGN421 administration): 0.85 ratio
  Hey-1 transcript, Post-treatment vs. Pre-treatment ratio (microarray, patient 3, dose 0.25 mg/kg, 24 hours after REGN421 administration): 0.77 ratio
  Hey-1 transcript, Post-treatment vs. Pre-treatment ratio (microarray, patient 4, dose 0.25 mg/kg, 24 hours after REGN421 administration): 0.51 ratio
  Hey-1 transcript, Post-treatment vs. Pre-treatment ratio (microarray, patient 5, dose 0.25 mg/kg, 24 hours after REGN421 administration): 0.61 ratio
  Hey-1 transcript, Post-treatment vs. Pre-treatment ratio (microarray, patient 6, dose 0.25 mg/kg, 24 hours after REGN421 administration): 0.55 ratio
  Hey-1 transcript, Post-treatment vs. Pre-treatment ratio (microarray, patient 7, dose 0.25 mg/kg, 24 hours after REGN421 administration): 0.75 ratio
  Hey-1 transcript, Post-treatment vs. Pre-treatment ratio (microarray, patient 8, dose 0.5 mg/kg, 24 hours after REGN421 administration): 0.68 ratio
  Hey-1 transcript, Post-treatment vs. Pre-treatment ratio (microarray, patient 9, dose 0.5 mg/kg, 24 hours after REGN421 administration): 0.82 ratio
